From PMC5331220, “Oxidation of F-actin controls the terminal steps of cytokinesis” (Nature Communications, 2017)
Numbering of substitutions follows the chain as printed. Names may count otherwise. “And” between values parts separate entries of the source, which are not always exact repeats. Identical values can stand only once.

T1: His-tagged MICAL1^FAD-CH-LIM (MICAL1^1–843) (human, UniProt Q8TDZ2 1-843)
T1 construct: MICAL1, human, amino acids 1-843 (monooxygenase/FAD, CH and LIM domains); also called 6xHis-MICAL1^FAD-CH-LIM; source: E. coli BL21-AI, purified (Ni-NTA magnetic agarose beads)
T1 sequence (looked up): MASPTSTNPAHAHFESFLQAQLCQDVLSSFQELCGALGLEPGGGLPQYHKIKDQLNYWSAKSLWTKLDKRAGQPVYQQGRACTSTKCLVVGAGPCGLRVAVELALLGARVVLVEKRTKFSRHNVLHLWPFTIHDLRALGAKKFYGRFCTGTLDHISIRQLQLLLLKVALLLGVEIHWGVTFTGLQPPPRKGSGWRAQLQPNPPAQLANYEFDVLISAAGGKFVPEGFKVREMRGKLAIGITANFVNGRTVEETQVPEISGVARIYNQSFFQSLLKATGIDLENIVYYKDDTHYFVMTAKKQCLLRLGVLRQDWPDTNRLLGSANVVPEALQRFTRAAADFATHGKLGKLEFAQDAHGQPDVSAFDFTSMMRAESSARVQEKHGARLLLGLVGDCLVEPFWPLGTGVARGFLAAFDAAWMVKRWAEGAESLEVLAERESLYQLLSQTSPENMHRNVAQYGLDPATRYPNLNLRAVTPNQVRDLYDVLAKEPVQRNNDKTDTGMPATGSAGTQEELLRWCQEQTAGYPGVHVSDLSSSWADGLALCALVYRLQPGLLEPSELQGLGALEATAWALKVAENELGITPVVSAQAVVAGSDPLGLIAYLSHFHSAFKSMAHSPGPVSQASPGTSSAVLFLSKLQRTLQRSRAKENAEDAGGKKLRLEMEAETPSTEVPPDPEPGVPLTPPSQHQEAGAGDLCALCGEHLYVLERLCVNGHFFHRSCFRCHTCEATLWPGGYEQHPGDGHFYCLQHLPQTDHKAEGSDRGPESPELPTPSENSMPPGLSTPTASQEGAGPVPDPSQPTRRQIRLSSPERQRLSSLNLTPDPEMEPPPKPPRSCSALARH

T2: MICAL1^879-1067 wild-type (human, UniProt Q8TDZ2 879-1067)
T2 construct: source: E. coli BL21-CodonPlus-RILP or BL21-Gold, purified (HisTrap, rTEV cleavage, Superdex-75); not shown: His6, N-terminal, cleaved
T2 sequence (looked up): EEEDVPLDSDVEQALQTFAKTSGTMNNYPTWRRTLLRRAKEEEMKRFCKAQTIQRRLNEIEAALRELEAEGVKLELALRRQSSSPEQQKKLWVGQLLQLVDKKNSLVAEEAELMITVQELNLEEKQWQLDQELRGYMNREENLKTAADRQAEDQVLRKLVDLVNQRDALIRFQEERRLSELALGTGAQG

B1: MICAL1^918-1067 wild-type (C-terminal domain of human MICAL1) (domain or fragment, UniProt Q8TDZ2 918-1067, looked up)
chain: KEEEMKRFCKAQTIQRRLNEIEAALRELEAEGVKLELALRRQSSSPEQQKKLWVGQLLQLVDKKNSLVAEEAELMITVQELNLEEKQWQLDQELRGYMNREENLKTAADRQAEDQVLRKLVDLVNQRDALIRFQEERRLSELALGTGAQG
notes: also called C-term MICAL1; source: E. coli BL21-CodonPlus-RILP or BL21-Gold, purified (HisTrap, rTEV cleavage, Superdex-75); not shown: His6, N-terminal, cleaved
B2: MICAL1^918-1067 S1 mutant (E946K, V950D, E953K, V971E, L975R, V978E) (domain or fragment, human, UniProt Q8TDZ2 918-1067, looked up)
chain: B1 chain with E29K, V33D, E36K, V54E, L58R, V61E
notes: the supplement and the results print V978E; source: E. coli BL21-CodonPlus-RILP or BL21-Gold, purified (HisTrap, rTEV cleavage, Superdex-75); not shown: His6, N-terminal, cleaved
B3: GST-tagged MICAL1^879–1067 (domain or fragment, human, UniProt Q8TDZ2 879-1067, looked up)
chain: T2 sequence (looked up)
notes: source: E. coli BL21-AI, purified (glutathione Sepharose 4B)
B4: Rab35^1-175 (domain or fragment)
chain: not shown
notes: Rab35 GTPase, human, residues 1-175 (lacks the last 26 aa); Loaded with GppNHp (assay a1) or with GDP (assay a2); also called GppNHp-Rab35 1-175; GDP-Rab35 1-175; source: E. coli BL21-CodonPlus-RILP or BL21-Gold, purified (HisTrap, rTEV cleavage, Superdex-75); not shown: His6, N-terminal, cleaved
B5: Rab35^1-199 (domain or fragment)
chain: not shown
notes: Rab35 GTPase, human, residues 1-199; Loaded with GppNHp; also called GppNHp-Rab35 1-199; source: E. coli BL21-CodonPlus-RILP or BL21-Gold, purified (HisTrap, rTEV cleavage, Superdex-75); not shown: His6, N-terminal, cleaved

Legend:
Settings in all cases: both partners purified
Rab35^1-175 = target: B4; assay: ITC; MicroCal ITC-200, 10 °C; C-terminal MICAL1 domain 60 μM in the cell, GppNHp-Rab35 480 μM added in 2 μl aliquots; 50 mM Tris pH 8, 150 mM NaCl, 2 mM MgCl2, 2 mM TCEP, 5% glycerol; one-site model
Rab35^1-175, sequence (Q15286 1-175): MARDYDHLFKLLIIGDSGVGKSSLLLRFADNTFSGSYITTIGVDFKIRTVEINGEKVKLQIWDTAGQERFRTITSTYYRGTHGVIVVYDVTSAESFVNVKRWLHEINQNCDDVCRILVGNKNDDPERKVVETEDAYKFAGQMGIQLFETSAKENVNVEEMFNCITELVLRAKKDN

Rab35^1-199 = target: B5; assay: as above
Rab35^1-199, sequence (Q15286 1-199): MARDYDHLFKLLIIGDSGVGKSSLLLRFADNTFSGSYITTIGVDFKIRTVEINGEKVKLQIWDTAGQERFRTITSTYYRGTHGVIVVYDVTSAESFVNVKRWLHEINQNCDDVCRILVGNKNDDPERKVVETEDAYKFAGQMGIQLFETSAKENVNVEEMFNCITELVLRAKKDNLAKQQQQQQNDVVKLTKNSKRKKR

[1] = target: T1, His-tagged MICAL1^FAD-CH-LIM …; assay: pull-down; GST-MICAL1^879–1067 on glutathione Sepharose 4B beads, incubated with 6xHis-MICAL1^FAD-CH-LIM alone or with increasing amounts of Rab35-GppNHp in 50 mM Tris pH 8, 150 mM NaCl, 2 mM MgCl2, 1 mM DTT; anti-6xHis and anti-Rab35 blots
[2] = target: T2, MICAL1^879-1067 wild-type; assay: ITC; MicroCal ITC-200, 10 °C; C-terminal MICAL1 domain 60 μM in the cell, GppNHp-Rab35 480 μM added in 2 μl aliquots; 50 mM Tris pH 8, 150 mM NaCl, 2 mM MgCl2, 2 mM TCEP, 5% glycerol; one-site model
[3] = target: B1; assay: as above
[4] = target: B2; assay: as above

B1
Kd (Rab35^1-175): 8.3 µM and 4.5 µM | Kd (Rab35^1-199): 4.5 µM and 5 µM and 4.8 µM

B2
Kd (Rab35^1-175): 7.9 µM and 6.4 µM and 7.2 µM

B3
binding result [1]: binds

B4
Kd [2]: 13 µM | stoichiometry N [2]: 0.8 | stoichiometry N [3]: 1.09 | stoichiometry N [4]: 0.95

B5
stoichiometry N [3]: 1.07
